Laboratory results taken from the RNAGym collection of RNA variant scans (doi:10.1093/nar/gkz1192).

B1: CPEB3 Ribozyme (parent)
chain: UAACAGGGGGCCACAGCAGAAGCGUUCACGUCGCAGCCCCUGUCAGAUUCUGGUGAAUCUGCGAAUUCUGCUGUAUAUCUC

Variants of: B1
Assay: self-cleavage, relative activity (ratio to wild type); higher = more cleavage; in vitro, sequencing
Procedure, shortened: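 After error-prone PCR and barcoding, CPEB3 ribozyme mutant libraries were transcribed with T7 RNA polymerase at 37°C for 5 hours, then given 15 min with DNase I before an EDTA stop, and they cleaved during both steps. Reverse transcription with template switching preceded Illumina sequencing. Relative activity divides a variant's cleaved/total read fraction by the unmutated ribozyme's. At least 5 reads were required per variant, and three batches were averaged.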

| Variant | self-cleavage |
| --- | --- |
| AAACAGGGCGCCACAGCAGAAGCGUUCACGUCGCAGCCCCUGUCAGAUUCUGGUGAAUCUGCGAAUUCUGCUGUAUAUCUC [U1A G9C] | 0.1 |
| AAACAGGGAGCCACAGCAGAAGCGUUCACGUCGCAGCCCCUGUCAGAUUCUGGUGAAUCUGCGAAUUCUGCUGUAUAUCUC [U1A G9A] | 0.28 |
| AAACAGGGGGCCACAGCAGAAGCGUUCACGUCGCAGCCCCUGUCAGAUUCUGGUGAAUCUGCGAAUUCUGCUGUGUAUCUC [U1A A75G] | 0.9 |
| AAACAGGGGGCCACAGCAGAAGCGUUCACGUCGCAGCCCCUGUCAGAUUCUGGUGAAUCUGCGAAUUCUGCUGUUUAUCUC [U1A A75U] | 1.14 |
| AAACAGGGGGCCACAGCAGAAGCGUUCACGUUGCAGCCCCUGUCAGAUUCUGGUGAAUCUGCGAAUUCUGCUGUAUAUCUC [U1A C32U] | 0.3 |
| AAACAGGGGGCCACAGCAGAAGCGUUCACGUGGCAGCCCCUGUCAGAUUCUGGUGAAUCUGCGAAUUCUGCUGUAUAUCUC [U1A C32G] | 0.09 |
| AAACAGGGGGCCACAGCUGAAGCGUUCACGUCGCAGCCCCUGUCAGAUUCUGGUGAAUCUGCGAAUUCUGCUGUAUAUCUC [U1A A18U] | 0.41 |
| AAACAGGGGGCCACAGCGGAAGCGUUCACGUCGCAGCCCCUGUCAGAUUCUGGUGAAUCUGCGAAUUCUGCUGUAUAUCUC [U1A A18G] | 0.57 |
| AAACAGGGGGCCACAGCCGAAGCGUUCACGUCGCAGCCCCUGUCAGAUUCUGGUGAAUCUGCGAAUUCUGCUGUAUAUCUC [U1A A18C] | 0.53 |
| AAACAGGGGGCCACAGCAGAAGCGUUCACGUCGCAGCCCCUGUCAGAUUCUGGUGAAUCUGCGAAUUCUGCUGUAUGUCUC [U1A A77G] | 1.12 |
| AAACAGGGGGCCACAGCAGAAGCGUUCACGUCGCAGCCCCUGUCAGAUUCUGGUGAAUCUGCGAAUUCUGCUGUAUUUCUC [U1A A77U] | 1.05 |
| AAACAGGGGGCCUCAGCAGAAGCGUUCACGUCGCAGCCCCUGUCAGAUUCUGGUGAAUCUGCGAAUUCUGCUGUAUAUCUC [U1A A13U] | 1.16 |
| AAACAGGGGGCCGCAGCAGAAGCGUUCACGUCGCAGCCCCUGUCAGAUUCUGGUGAAUCUGCGAAUUCUGCUGUAUAUCUC [U1A A13G] | 0.8 |
| AAACAGGGGCCCACAGCAGAAGCGUUCACGUCGCAGCCCCUGUCAGAUUCUGGUGAAUCUGCGAAUUCUGCUGUAUAUCUC [U1A G10C] | 0.36 |
| AAACAGGGGACCACAGCAGAAGCGUUCACGUCGCAGCCCCUGUCAGAUUCUGGUGAAUCUGCGAAUUCUGCUGUAUAUCUC [U1A G10A] | 0.25 |
| AAACAGGGGGUCACAGCAGAAGCGUUCACGUCGCAGCCCCUGUCAGAUUCUGGUGAAUCUGCGAAUUCUGCUGUAUAUCUC [U1A C11U] | 0.46 |
| AAACAGGGGGGCACAGCAGAAGCGUUCACGUCGCAGCCCCUGUCAGAUUCUGGUGAAUCUGCGAAUUCUGCUGUAUAUCUC [U1A C11G] | 0.49 |
| AAACAGGGGGCCACAGCAGAAGGGUUCACGUCGCAGCCCCUGUCAGAUUCUGGUGAAUCUGCGAAUUCUGCUGUAUAUCUC [U1A C23G] | 0.1 |
| AAACAGGGGGCCACAGCAGAAGUGUUCACGUCGCAGCCCCUGUCAGAUUCUGGUGAAUCUGCGAAUUCUGCUGUAUAUCUC [U1A C23U] | 0.22 |
| AAACAGAGGGCCACAGCAGAAGCGUUCACGUCGCAGCCCCUGUCAGAUUCUGGUGAAUCUGCGAAUUCUGCUGUAUAUCUC [U1A G7A] | 0.1 |
| AAACAGUGGGCCACAGCAGAAGCGUUCACGUCGCAGCCCCUGUCAGAUUCUGGUGAAUCUGCGAAUUCUGCUGUAUAUCUC [U1A G7U] | 0.3 |
| AAACAGGGGGCCACAGCAGAAGCGUUCACGUCGCAGGCCCUGUCAGAUUCUGGUGAAUCUGCGAAUUCUGCUGUAUAUCUC [U1A C37G] | 1.04 |
| AAACAGGGGGCCACAGCAGAAGCGUUCACGUCGCAGACCCUGUCAGAUUCUGGUGAAUCUGCGAAUUCUGCUGUAUAUCUC [U1A C37A] | 0.31 |

| Variant | self-cleavage |
| --- | --- |
| AAACAAGGGGCCACAGCAGAAGCGUUCACGUCGCAGCCCCUGUCAGAUUCUGGUGAAUCUGCGAAUUCUGCUGUAUAUCUC [U1A G6A] | 0.27 |
| AAACAGGGGGCCACAGCAGAAGCGUUCACGUCGCAGCCCCUGUCAGAUUAUGGUGAAUCUGCGAAUUCUGCUGUAUAUCUC [U1A C50A] | 0.47 |
| AAACAGGGGGCCACAGCAGAAGCGUUCACGUCGCAGCCCCUGUCAGAUUCUGGUGAAUCUGCGAAUUAUGCUGUAUAUCUC [U1A C68A] | 0.41 |
| AAACAGGGGGCCACAGCAGAAGCGUUCACGUCGCAGCCCCUGUCAGAUUCUGGUGAAUCUGCGAAUUUUGCUGUAUAUCUC [U1A C68U] | 0.82 |
| AAACAGGGGGCCAAAGCAGAAGCGUUCACGUCGCAGCCCCUGUCAGAUUCUGGUGAAUCUGCGAAUUCUGCUGUAUAUCUC [U1A C14A] | 1.17 |
| AAACAGGGGGCCACAGCAGAGGCGUUCACGUCGCAGCCCCUGUCAGAUUCUGGUGAAUCUGCGAAUUCUGCUGUAUAUCUC [U1A A21G] | 0.55 |
| AAACAGGGGGCCACAGCAGAUGCGUUCACGUCGCAGCCCCUGUCAGAUUCUGGUGAAUCUGCGAAUUCUGCUGUAUAUCUC [U1A A21U] | 0.27 |
| AAACAGGGGGCCACAGCAGACGCGUUCACGUCGCAGCCCCUGUCAGAUUCUGGUGAAUCUGCGAAUUCUGCUGUAUAUCUC [U1A A21C] | 0.28 |
| AAACAGGGGGCCACAGCAGAAGCGUUAACGUCGCAGCCCCUGUCAGAUUCUGGUGAAUCUGCGAAUUCUGCUGUAUAUCUC [U1A C27A] | 0.22 |
| AAACAGGGGGCCACAGCAGAAGCGUUCACGUCGCAGCCCCUGUCAGGUUCUGGUGAAUCUGCGAAUUCUGCUGUAUAUCUC [U1A A47G] | 1.01 |
| AAACAGGGGGCCACAGCAGAAGCGUUCACGUCGCAGCCCCUGUCAGUUUCUGGUGAAUCUGCGAAUUCUGCUGUAUAUCUC [U1A A47U] | 0.78 |
| AAACUGGGGGCCACAGCAGAAGCGUUCACGUCGCAGCCCCUGUCAGAUUCUGGUGAAUCUGCGAAUUCUGCUGUAUAUCUC [U1A A5U] | 0.97 |
| AAACGGGGGGCCACAGCAGAAGCGUUCACGUCGCAGCCCCUGUCAGAUUCUGGUGAAUCUGCGAAUUCUGCUGUAUAUCUC [U1A A5G] | 0.68 |
| AAACAGGGGGCCACAGCAGAAGCGUUCACGUCGCAGCCCCUGUCUGAUUCUGGUGAAUCUGCGAAUUCUGCUGUAUAUCUC [U1A A45U] | 0.41 |
| AAACAGGGGGCCACAGCAGAAGCGUUCACGUCGCAGCCCCUGUCGGAUUCUGGUGAAUCUGCGAAUUCUGCUGUAUAUCUC [U1A A45G] | 0.75 |
| AAACAGGGGGCCACAGCAGAAGCGUUCACGUCGCAGCCCCUGUCAGAUUCUGGUGAAUUUGCGAAUUCUGCUGUAUAUCUC [U1A C59U] | 0.46 |
| AAACAGGGGGCCACAGCAGAAGCGUUCACGUCGCAGCCCCUGUCAGAUUCUGGUGAAUCUGCGAGUUCUGCUGUAUAUCUC [U1A A65G] | 0.48 |
| AAACAGGGGGCCACAGCAGAAGCGUUCACGUCGCAGCCCCUGUCAGAUUCUGGUGAAUCUGCGACUUCUGCUGUAUAUCUC [U1A A65C] | 0.12 |
| AAACAGGGGGCCACAGCAGAAGCGUUCAUGUCGCAGCCCCUGUCAGAUUCUGGUGAAUCUGCGAAUUCUGCUGUAUAUCUC [U1A C29U] | 0.52 |
| AAACAGGGGGCCACAGCAGAAGCGUUCUCGUCGCAGCCCCUGUCAGAUUCUGGUGAAUCUGCGAAUUCUGCUGUAUAUCUC [U1A A28U] | 0.88 |
| AAACAGGGGGCCACAGCAGAAGCGUUCACGUCGCAGCCCCUGUCAGAUUCUGGUGAAUCUGCGAAUUCUGCUGUAUAUCUC [U1A] | 0.98 |
| AAACAGGGGGCCACAGCAGAAGCGUUCACGUCGCAGCCCCUGUCAGAUUCUGGUGAGUCUGCGAAUUCUGCUGUAUAUCUC [U1A A57G] | 0.77 |
| AAUCAGGGGGCCACAGCAGAAGCGUUCACGUCGCAGCCCCUGUCAGAUUCUGGUGAAUCUGCGAAUUCUGCUGUAUAUCUC [U1A A3U] | 1.2 |

| Variant | self-cleavage |
| --- | --- |
| AACCAGGGGGCCACAGCAGAAGCGUUCACGUCGCAGCCCCUGUCAGAUUCUGGUGAAUCUGCGAAUUCUGCUGUAUAUCUC [U1A A3C] | 1.09 |
| AAGCAGGGGGCCACAGCAGAAGCGUUCACGUCGCAGCCCCUGUCAGAUUCUGGUGAAUCUGCGAAUUCUGCUGUAUAUCUC [U1A A3G] | 1.1 |
| AAACAGGGGGCCACAGCAGAAGCGUUCACGUCGCAGCCCCUGUCAGAUUCUGGUGAAUCUGCGUAUUCUGCUGUAUAUCUC [U1A A64U] | 0.28 |
| AAACAGGGGGCCACAGCAGAAGCGUUCACGUCGCAGCCCCUGUCAGAUUCUGGUGAAUCUGCGGAUUCUGCUGUAUAUCUC [U1A A64G] | 0.84 |
| AAACAGGGGGCCACAGCAGAAGCGUUCACGUCGCAGCCCCUGUCAGAUUCUGGUGAAUCUGCGAAUUCUGCUGUAUAUCUU [U1A C81U] | 1.11 |
| AAACAGGGGGCCACUGCAGAAGCGUUCACGUCGCAGCCCCUGUCAGAUUCUGGUGAAUCUGCGAAUUCUGCUGUAUAUCUC [U1A A15U] | 0.69 |
| AAACAGGGGGCCACGGCAGAAGCGUUCACGUCGCAGCCCCUGUCAGAUUCUGGUGAAUCUGCGAAUUCUGCUGUAUAUCUC [U1A A15G] | 0.72 |
| AAACAGGGGGCGACAGCAGAAGCGUUCACGUCGCAGCCCCUGUCAGAUUCUGGUGAAUCUGCGAAUUCUGCUGUAUAUCUC [U1A C12G] | 0.43 |
| AAACAGGGGGCUACAGCAGAAGCGUUCACGUCGCAGCCCCUGUCAGAUUCUGGUGAAUCUGCGAAUUCUGCUGUAUAUCUC [U1A C12U] | 1.2 |
| AAACAGGGGGCAACAGCAGAAGCGUUCACGUCGCAGCCCCUGUCAGAUUCUGGUGAAUCUGCGAAUUCUGCUGUAUAUCUC [U1A C12A] | 1.14 |
| AAACAGGGGGCCACAGCAGAAGCGUUCACGUCGCAGCCCCUGUCAGAUUCUGGUGGAUCUGCGAAUUCUGCUGUAUAUCUC [U1A A56G] | 0.71 |
| AAACAGGGGGCCACAGCAGAAGCGUUCACGUCGCAGCCCCUGUCAGAUUCUGGUGUAUCUGCGAAUUCUGCUGUAUAUCUC [U1A A56U] | 0.61 |
| AGACAGGGGGCCACAGCAGAAGCGUUCACGUCGCAGCCCCUGUCAGAUUCUGGUGAAUCUGCGAAUUCUGCUGUAUAUCUC [U1A A2G] | 0.87 |
| AUACAGGGGGCCACAGCAGAAGCGUUCACGUCGCAGCCCCUGUCAGAUUCUGGUGAAUCUGCGAAUUCUGCUGUAUAUCUC [U1A A2U] | 1.09 |
| AAACAGGGGGCCACAGCAGAAGCGUUCACGUCGCUGCCCCUGUCAGAUUCUGGUGAAUCUGCGAAUUCUGCUGUAUAUCUC [U1A A35U] | 0.49 |
| AAACAGGGGGCCACAGCAGAAGCGUUCACGUCGCGGCCCCUGUCAGAUUCUGGUGAAUCUGCGAAUUCUGCUGUAUAUCUC [U1A A35G] | 1.25 |
| AAACAGGAGGCCACAGCAGAAGCGUUCACGUCGCAGCCCCUGUCAGAUUCUGGUGAAUCUGCGAAUUCUGCUGUAUAUCUC [U1A G8A] | 0.19 |
| AAACAGGGGGCCACAGCAGUAGCGUUCACGUCGCAGCCCCUGUCAGAUUCUGGUGAAUCUGCGAAUUCUGCUGUAUAUCUC [U1A A20U] | 0.32 |
| AAACAGGGGGCCACAGCAGGAGCGUUCACGUCGCAGCCCCUGUCAGAUUCUGGUGAAUCUGCGAAUUCUGCUGUAUAUCUC [U1A A20G] | 0.72 |
| AAACAGGGGGCCACAGCAGAAGCGUUCACGUCGCAGCUCCUGUCAGAUUCUGGUGAAUCUGCGAAUUCUGCUGUAUAUCUC [U1A C38U] | 0.97 |
| AAACAGGGGGCCACAGCAGAAGCGUUCACGUCGCAGCGCCUGUCAGAUUCUGGUGAAUCUGCGAAUUCUGCUGUAUAUCUC [U1A C38G] | 0.45 |
| AAACAGGGGGCCACAGCAGAAGCGUUCACGUCGCAGCACCUGUCAGAUUCUGGUGAAUCUGCGAAUUCUGCUGUAUAUCUC [U1A C38A] | 0.35 |
